Here are results for two molecules from article PMC10484735.

For series [1], the system named is gp32 (WT) (bacteriophage T4). As to the kind of experiment: optical tweezers (koff/kon). Particulars: 15 pN tension; kon 0.003 nM-1 s-1; cooperative binding to bare ssDNA; Optical tweezers buffer, pH and temperature not in the material (lower salt than AFM; 15 pN for Kd); AFM: 150 mM Na+, 100 uM spermidine, 37 C, 5 min.
Series [2] has as its system *II (gp32 N-terminal truncate) (bacteriophage T4). As to the kind of experiment: optical tweezers (koff/kon). Particulars: 15 pN tension; kon 0.0024 nM-1 s-1, koff 0.11 s-1; Optical tweezers buffer, pH and temperature not in the material (lower salt than AFM; 15 pN for Kd); AFM: 150 mM Na+, 100 uM spermidine, 37 C, 5 min.
Series [3] concerns the target Bacteriophage T4 gene 32 protein (gp32), full-length (bacteriophage T4) (UniProt P03695).
The target is the same in series [4]. The source holds these as a separate data set.
The target is the same in series [5]. The source holds these as a separate data set.

What is called Kd is the equilibrium constant for the complex coming apart. On to 8.1 knt ssDNA (optical tweezers), for which the equilibrium dissociation constant (Kd) in series [1] was 0.001 µM; in series [2] it was 0.046 µM.

B1: Bacteriophage T4 gene 32 protein (gp32), full-length (natural protein)
chain: MFKRKSTAELAAQMAKLNGNKGFSSEDKGEWKLKLDNAGNGQAVIRFLPSKNDEQAPFAILVNHGFKKNGKWYIETCSSTHGDYDSCPVCQYISKNDLYNTDNKEYSLVKRKTSYWANILVVKDPAAPENEGKVFKYRFGKKIWDKINAMIAVDVEMGETPVDVTCPWEGANFVLKVKQVSGFSNYDESKFLNQSAIPNIDDESFQKELFEQMVDLSEMTSKDKFKSFEELNTKFGQVMGTAVMGGAAATAAKKADKVADDLDAFNVDDFNTKTEDDFMSSSSGSSSSADDTDLDDLLNDL
The molecule B1 displayed a persistence length of the gp32–ssDNA complex (WLC fit of force-extension curves up to 5 pN, optical tweezers; plateau at gp32 ≥25 nM, up to 1 μM) in series [3] of 20 nm. In series [4], the rate of ssDNA compaction after bimolecular binding (kc, two-step fit of k+1 against gp32 concentration at 15 pN, optical tweezers) worked out at 1.5 s^−1. Moreover, in series [5], the maximal compaction of 8.1 knt ssDNA at 15 pN (optical tweezers, constant force), WT gp32 against the noncooperative truncate *II that lacks the N-terminal domain was found to be 4 fold.
